Assay results as given in the supplement of paper PMC9112550, “Optimization of the antimicrobial peptide Bac7 by deep mutational scanning” (BMC Biology, 2022).

The sequences below were run on Escherichia coli TOP10 (assay: shrunken log2 fold change of peptide-encoding DNA abundance (4.5 h post-induction vs induction); higher = less antimicrobial activity (less host growth inhibition)). Details: time post-induction: 4.5 h; library: site-saturation at positions 5, 18, 19, 20.
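Also: peptides expressed intracellularly from a pBAD plasmid library in pooled LB shake-flask culture, induced with 0.3% L-arabinose, DNA abundance read by NGS, three biological replicates, DESeq2 with apeglm shrinkage.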

| Sequence | shrunken log2 fold change |
| --- | --- |
| RRIRFRPPRLPRPRPRPAENPRP | -0.134 |
| RRIRFRPPRLPRPRPRPAEPPRP | 0.137 |
| RRIRFRPPRLPRPRPRPAFFPRP | 0.0784 |
| RRIRFRPPRLPRPRPRPAGCPRP | 0.229 |
| RRIRFRPPRLPRPRPRPAGHPRP | 0.153 |
| RRIRFRPPRLPRPRPRPAHIPRP | -0.218 |
| RRIRFRPPRLPRPRPRPAICPRP | 0.00851 |
| RRIRFRPPRLPRPRPRPAIDPRP | -0.00326 |
| RRIRFRPPRLPRPRPRPAKGPRP | 0.141 |
| RRIRFRPPRLPRPRPRPAKVPRP | 0.333 |
| RRIRFRPPRLPRPRPRPALPPRP | 0.0544 |
| RRIRFRPPRLPRPRPRPAMAPRP | 0.0902 |
| RRIRFRPPRLPRPRPRPANSPRP | -0.448 |
| RRIRFRPPRLPRPRPRPAPLPRP | 0.516 |
| RRIRFRPPRLPRPRPRPARTPRP | 0.332 |
| RRIRFRPPRLPRPRPRPASMPRP | -0.146 |
| RRIRFRPPRLPRPRPRPAWLPRP | 0.231 |
| RRIRFRPPRLPRPRPRPAWMPRP | 0.336 |
| RRIRFRPPRLPRPRPRPCAIPRP | -0.0259 |
| RRIRFRPPRLPRPRPRPCCGPRP | -0.221 |
| RRIRFRPPRLPRPRPRPCCSPRP | -0.139 |
| RRIRFRPPRLPRPRPRPCDIPRP | -0.0737 |
| RRIRFRPPRLPRPRPRPCDKPRP | -0.0972 |
| RRIRFRPPRLPRPRPRPCDLPRP | -0.142 |
| RRIRFRPPRLPRPRPRPCGHPRP | -0.129 |

| Sequence | shrunken log2 fold change |
| --- | --- |
| RRIRFRPPRLPRPRPRPCGMPRP | -0.24 |
| RRIRFRPPRLPRPRPRPCHNPRP | -0.0447 |
| RRIRFRPPRLPRPRPRPCIKPRP | -0.0867 |
| RRIRFRPPRLPRPRPRPCKDPRP | -0.198 |
| RRIRFRPPRLPRPRPRPCKMPRP | 0.111 |
| RRIRFRPPRLPRPRPRPCKNPRP | 0.0492 |
| RRIRFRPPRLPRPRPRPCLKPRP | -0.148 |
| RRIRFRPPRLPRPRPRPCNVPRP | -0.01 |
| RRIRFRPPRLPRPRPRPCPHPRP | -0.135 |
| RRIRFRPPRLPRPRPRPCPTPRP | -0.0449 |
| RRIRFRPPRLPRPRPRPCTMPRP | -0.462 |
| RRIRFRPPRLPRPRPRPCVNPRP | -0.121 |
| RRIRFRPPRLPRPRPRPCYLPRP | -0.891 |
| RRIRFRPPRLPRPRPRPCYWPRP | -0.0974 |
| RRIRFRPPRLPRPRPRPDAVPRP | -0.0144 |
| RRIRFRPPRLPRPRPRPDDFPRP | 0.0834 |
| RRIRFRPPRLPRPRPRPDDYPRP | -0.0193 |
| RRIRFRPPRLPRPRPRPDESPRP | -0.0167 |
| RRIRFRPPRLPRPRPRPDFHPRP | -0.287 |
| RRIRFRPPRLPRPRPRPDGDPRP | 0.0613 |
| RRIRFRPPRLPRPRPRPDGTPRP | -0.256 |
| RRIRFRPPRLPRPRPRPDHIPRP | -0.00578 |
| RRIRFRPPRLPRPRPRPDHKPRP | -0.406 |
| RRIRFRPPRLPRPRPRPDKPPRP | 0.0269 |
| RRIRFRPPRLPRPRPRPDKWPRP | 0.0538 |

| Sequence | shrunken log2 fold change |
| --- | --- |
| RRIRFRPPRLPRPRPRPDLCPRP | -0.0489 |
| RRIRFRPPRLPRPRPRPDMDPRP | -0.107 |
| RRIRFRPPRLPRPRPRPDNKPRP | -0.853 |
| RRIRFRPPRLPRPRPRPDNVPRP | -0.336 |
| RRIRFRPPRLPRPRPRPDPTPRP | 0.0215 |
| RRIRFRPPRLPRPRPRPDQEPRP | -0.0176 |
| RRIRFRPPRLPRPRPRPDQFPRP | -0.221 |
| RRIRFRPPRLPRPRPRPDQNPRP | -0.203 |
| RRIRFRPPRLPRPRPRPDRDPRP | -0.119 |
| RRIRFRPPRLPRPRPRPDRFPRP | 0.042 |
| RRIRFRPPRLPRPRPRPDRGPRP | 0.0145 |
| RRIRFRPPRLPRPRPRPDSAPRP | -0.102 |
| RRIRFRPPRLPRPRPRPDSQPRP | -0.271 |
| RRIRFRPPRLPRPRPRPDSRPRP | 0.391 |
| RRIRFRPPRLPRPRPRPDVIPRP | 0.0834 |
| RRIRFRPPRLPRPRPRPDVYPRP | -0.32 |
| RRIRFRPPRLPRPRPRPDWTPRP | 0.039 |
| RRIRFRPPRLPRPRPRPDYPPRP | -0.111 |
| RRIRFRPPRLPRPRPRPDYTPRP | -0.02 |
| RRIRFRPPRLPRPRPRPECAPRP | 0.724 |
| RRIRFRPPRLPRPRPRPECNPRP | 0.0687 |
| RRIRFRPPRLPRPRPRPECSPRP | 0.411 |
| RRIRFRPPRLPRPRPRPEFDPRP | -0.193 |
| RRIRFRPPRLPRPRPRPEFLPRP | 0.0354 |
| RRIRFRPPRLPRPRPRPEFTPRP | 1.75 |

| Sequence | shrunken log2 fold change |
| --- | --- |
| RRIRFRPPRLPRPRPRPEFVPRP | 0.0629 |
| RRIRFRPPRLPRPRPRPEHAPRP | 0.243 |
| RRIRFRPPRLPRPRPRPEHSPRP | -0.00202 |
| RRIRFRPPRLPRPRPRPEIKPRP | 0.058 |
| RRIRFRPPRLPRPRPRPEKEPRP | -0.0104 |
| RRIRFRPPRLPRPRPRPEKQPRP | -0.0262 |
| RRIRFRPPRLPRPRPRPEPGPRP | 0.534 |
| RRIRFRPPRLPRPRPRPEPKPRP | 0.415 |
| RRIRFRPPRLPRPRPRPEQAPRP | -0.0421 |
| RRIRFRPPRLPRPRPRPEREPRP | 0.292 |
| RRIRFRPPRLPRPRPRPETCPRP | -0.0911 |
| RRIRFRPPRLPRPRPRPETPPRP | 0.752 |
| RRIRFRPPRLPRPRPRPEVTPRP | -0.0331 |
| RRIRFRPPRLPRPRPRPEWHPRP | -0.28 |
| RRIRFRPPRLPRPRPRPEWVPRP | -0.0753 |
| RRIRFRPPRLPRPRPRPEWWPRP | 0.0105 |
| RRIRFRPPRLPRPRPRPEWYPRP | -0.361 |
| RRIRFRPPRLPRPRPRPEYGPRP | -0.621 |
| RRIRFRPPRLPRPRPRPFAHPRP | -0.0794 |
| RRIRFRPPRLPRPRPRPFATPRP | -0.0942 |
| RRIRFRPPRLPRPRPRPFAVPRP | -0.354 |
| RRIRFRPPRLPRPRPRPFDLPRP | -0.352 |
| RRIRFRPPRLPRPRPRPFDQPRP | -0.291 |
| RRIRFRPPRLPRPRPRPFFCPRP | -0.206 |
| RRIRFRPPRLPRPRPRPFFDPRP | -0.065 |

| Sequence | shrunken log2 fold change |
| --- | --- |
| RRIRFRPPRLPRPRPRPFFMPRP | -0.153 |
| RRIRFRPPRLPRPRPRPFFSPRP | -0.59 |
| RRIRFRPPRLPRPRPRPFFVPRP | -0.161 |
| RRIRFRPPRLPRPRPRPFGQPRP | -0.288 |
| RRIRFRPPRLPRPRPRPFGVPRP | -0.166 |
| RRIRFRPPRLPRPRPRPFHNPRP | -0.622 |
| RRIRFRPPRLPRPRPRPFHWPRP | -0.336 |
| RRIRFRPPRLPRPRPRPFITPRP | -0.918 |
| RRIRFRPPRLPRPRPRPFKAPRP | -0.11 |
| RRIRFRPPRLPRPRPRPFKHPRP | -0.2 |
| RRIRFRPPRLPRPRPRPFKNPRP | -0.46 |
| RRIRFRPPRLPRPRPRPFKQPRP | -0.242 |
| RRIRFRPPRLPRPRPRPFNAPRP | -0.415 |
| RRIRFRPPRLPRPRPRPFQFPRP | -0.253 |
| RRIRFRPPRLPRPRPRPFQKPRP | -0.00162 |
| RRIRFRPPRLPRPRPRPFRTPRP | -0.444 |
| RRIRFRPPRLPRPRPRPFTMPRP | -0.817 |
| RRIRFRPPRLPRPRPRPFTVPRP | -0.246 |
| RRIRFRPPRLPRPRPRPFVAPRP | -0.0081 |
| RRIRFRPPRLPRPRPRPFVPPRP | -0.668 |
| RRIRFRPPRLPRPRPRPFWIPRP | -0.357 |
| RRIRFRPPRLPRPRPRPFWVPRP | -0.0435 |
| RRIRFRPPRLPRPRPRPFYLPRP | -0.787 |
| RRIRFRPPRLPRPRPRPGCKPRP | -0.222 |
| RRIRFRPPRLPRPRPRPGCRPRP | 0.00327 |

| Sequence | shrunken log2 fold change |
| --- | --- |
| RRIRFRPPRLPRPRPRPGFDPRP | 0.0857 |
| RRIRFRPPRLPRPRPRPGFVPRP | 0.126 |
| RRIRFRPPRLPRPRPRPGGEPRP | 0.271 |
| RRIRFRPPRLPRPRPRPGGWPRP | 0.654 |
| RRIRFRPPRLPRPRPRPGHHPRP | -0.561 |
| RRIRFRPPRLPRPRPRPGHNPRP | -0.409 |
| RRIRFRPPRLPRPRPRPGHPPRP | -0.0866 |
| RRIRFRPPRLPRPRPRPGLYPRP | -0.171 |
| RRIRFRPPRLPRPRPRPGNAPRP | 0.0998 |
| RRIRFRPPRLPRPRPRPGNLPRP | -0.13 |
| RRIRFRPPRLPRPRPRPGPGPRP | 0.676 |
| RRIRFRPPRLPRPRPRPGSKPRP | -0.43 |
| RRIRFRPPRLPRPRPRPGSVPRP | -0.147 |
| RRIRFRPPRLPRPRPRPGTAPRP | 0.0678 |
| RRIRFRPPRLPRPRPRPGTTPRP | -0.032 |
| RRIRFRPPRLPRPRPRPGVEPRP | 0.112 |
| RRIRFRPPRLPRPRPRPGVGPRP | 0.358 |
| RRIRFRPPRLPRPRPRPGVLPRP | 0.0194 |
| RRIRFRPPRLPRPRPRPGVMPRP | 0.238 |
| RRIRFRPPRLPRPRPRPGVSPRP | 0.323 |
| RRIRFRPPRLPRPRPRPGWNPRP | 0.0411 |
| RRIRFRPPRLPRPRPRPHAWPRP | -0.126 |
| RRIRFRPPRLPRPRPRPHCSPRP | 0.0308 |
| RRIRFRPPRLPRPRPRPHCTPRP | -0.268 |
| RRIRFRPPRLPRPRPRPHDEPRP | 0.099 |
